Patent US20060024724A1

Biological target: oncofetal fibronectin (human) (UniProt P02751)
Test: lateral-flow sandwich test strip (mobile FDC-6 conjugate, goat polyclonal anti-fibronectin capture), TLiIQ reflectance reader, at 50 ng/ml oncofetal fibronectin

UniProt P02751, sequence (P02751 32-2477): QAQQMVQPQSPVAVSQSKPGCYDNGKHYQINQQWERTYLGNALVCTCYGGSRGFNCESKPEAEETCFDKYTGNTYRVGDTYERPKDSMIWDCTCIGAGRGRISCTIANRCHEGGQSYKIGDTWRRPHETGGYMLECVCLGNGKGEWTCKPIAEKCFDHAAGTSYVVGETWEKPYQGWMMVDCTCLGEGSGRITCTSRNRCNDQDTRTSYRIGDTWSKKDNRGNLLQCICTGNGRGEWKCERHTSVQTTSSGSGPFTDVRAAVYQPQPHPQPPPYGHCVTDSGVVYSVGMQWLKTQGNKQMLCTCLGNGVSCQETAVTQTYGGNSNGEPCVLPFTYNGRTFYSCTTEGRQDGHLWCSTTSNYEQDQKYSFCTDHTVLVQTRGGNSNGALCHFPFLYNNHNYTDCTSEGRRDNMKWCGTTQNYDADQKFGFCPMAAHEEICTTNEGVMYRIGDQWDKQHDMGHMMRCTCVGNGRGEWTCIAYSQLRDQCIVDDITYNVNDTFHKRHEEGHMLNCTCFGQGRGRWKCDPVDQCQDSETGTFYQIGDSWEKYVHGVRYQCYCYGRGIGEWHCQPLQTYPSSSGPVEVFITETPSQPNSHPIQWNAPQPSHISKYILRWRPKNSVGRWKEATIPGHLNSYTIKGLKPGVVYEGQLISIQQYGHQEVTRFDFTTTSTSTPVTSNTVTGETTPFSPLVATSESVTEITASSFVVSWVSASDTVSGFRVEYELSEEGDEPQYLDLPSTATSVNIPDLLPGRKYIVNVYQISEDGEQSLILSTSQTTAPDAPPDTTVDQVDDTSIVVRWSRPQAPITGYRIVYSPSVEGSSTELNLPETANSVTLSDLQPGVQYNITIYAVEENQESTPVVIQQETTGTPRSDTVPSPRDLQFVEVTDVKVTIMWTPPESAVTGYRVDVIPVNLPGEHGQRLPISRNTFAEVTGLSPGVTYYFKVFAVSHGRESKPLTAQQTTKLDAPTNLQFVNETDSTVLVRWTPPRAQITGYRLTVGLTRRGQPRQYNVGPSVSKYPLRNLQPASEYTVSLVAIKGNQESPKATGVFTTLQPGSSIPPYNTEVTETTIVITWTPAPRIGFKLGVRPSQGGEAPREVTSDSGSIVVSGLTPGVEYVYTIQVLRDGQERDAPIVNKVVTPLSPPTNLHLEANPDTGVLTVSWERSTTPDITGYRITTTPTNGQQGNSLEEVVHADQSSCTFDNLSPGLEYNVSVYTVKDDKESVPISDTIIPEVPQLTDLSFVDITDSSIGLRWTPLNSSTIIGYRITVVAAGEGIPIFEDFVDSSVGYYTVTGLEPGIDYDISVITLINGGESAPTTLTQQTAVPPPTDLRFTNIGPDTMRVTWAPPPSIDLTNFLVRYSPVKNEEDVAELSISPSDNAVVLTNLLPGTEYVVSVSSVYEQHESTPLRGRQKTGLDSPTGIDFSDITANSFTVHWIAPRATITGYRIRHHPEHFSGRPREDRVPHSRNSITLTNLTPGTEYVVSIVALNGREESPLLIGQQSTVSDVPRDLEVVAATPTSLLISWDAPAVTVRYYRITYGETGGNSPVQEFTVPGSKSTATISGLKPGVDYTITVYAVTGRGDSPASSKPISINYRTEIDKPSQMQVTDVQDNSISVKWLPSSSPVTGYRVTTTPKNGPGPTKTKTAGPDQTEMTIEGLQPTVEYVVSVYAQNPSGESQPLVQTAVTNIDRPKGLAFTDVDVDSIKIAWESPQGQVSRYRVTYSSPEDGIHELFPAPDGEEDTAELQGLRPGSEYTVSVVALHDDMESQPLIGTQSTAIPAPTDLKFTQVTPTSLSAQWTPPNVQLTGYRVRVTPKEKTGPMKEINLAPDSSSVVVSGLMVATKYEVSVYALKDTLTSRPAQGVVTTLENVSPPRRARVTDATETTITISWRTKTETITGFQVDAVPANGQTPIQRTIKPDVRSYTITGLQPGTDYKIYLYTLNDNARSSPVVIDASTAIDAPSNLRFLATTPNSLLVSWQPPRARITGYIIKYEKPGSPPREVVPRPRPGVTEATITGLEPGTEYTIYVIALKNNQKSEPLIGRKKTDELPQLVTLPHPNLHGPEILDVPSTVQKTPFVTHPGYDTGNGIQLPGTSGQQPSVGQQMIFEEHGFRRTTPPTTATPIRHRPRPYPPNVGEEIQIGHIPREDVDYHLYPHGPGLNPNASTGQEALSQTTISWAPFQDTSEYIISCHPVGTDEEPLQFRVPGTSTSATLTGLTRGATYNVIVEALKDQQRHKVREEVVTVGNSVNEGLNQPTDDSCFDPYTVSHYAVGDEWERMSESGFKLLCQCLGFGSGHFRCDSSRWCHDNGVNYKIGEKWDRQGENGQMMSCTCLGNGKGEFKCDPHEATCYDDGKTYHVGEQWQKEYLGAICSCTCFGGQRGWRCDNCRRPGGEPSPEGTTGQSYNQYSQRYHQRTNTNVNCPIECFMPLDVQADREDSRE

Question: For “FDC-6 monoclonal antibody (produced by hybridoma ATCC HB 9018)”, which reflectance signal is on record?
Answer: The reflectance signal was 0.315.
